Test results published in patent US20090291081A1 (AbbVie / Abbott, published 2009).
Like-named read-outs stand apart in the source and are kept apart here.

Columns and labels:
[1] = target: T1, human IL-1α (human, UniProt P01583 113-271); experiment: cell-based or functional assay
T1 sequence (looked up): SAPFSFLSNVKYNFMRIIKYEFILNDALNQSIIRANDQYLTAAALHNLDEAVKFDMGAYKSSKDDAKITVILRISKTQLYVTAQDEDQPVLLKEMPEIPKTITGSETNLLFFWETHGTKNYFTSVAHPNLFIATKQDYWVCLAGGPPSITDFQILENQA

[2] = target: T1, human IL-1α; experiment: BIAcore kinetic analysis of the dAb
[3] = target: T1, human IL-1α; experiment: cell-based or functional assay; remark: listed apart in the source
[4] = target: T1, human IL-1α; experiment: BIAcore, purified dAb
[5] = target: T1, human IL-1α; experiment: cell-based or functional assay; remark: listed apart in the source
[6] = target: T1, human IL-1α; experiment: cell-based or functional assay; remark: listed apart in the source
[7] = target: T2, human IL-1β (human, UniProt P01584 117-269); experiment: BIAcore kinetic analysis of the dAb
T2 construct: also called hIL-1β; rhIL-1 beta

[8] = target: T2, human IL-1β; experiment: cell-based or functional assay
[9] = target: T2, human IL-1β; experiment: BIAcore kinetic analysis of the dAb; remark: listed apart in the source
[10] = target: T2, human IL-1β; experiment: BIAcore kinetic analysis of the dAb; remark: listed apart in the source
[11] = target: T1, human IL-1α; experiment: BIAcore kinetic analysis of the dAb; remark: listed apart in the source
[12] = target: T1, human IL-1α; experiment: BIAcore kinetic analysis of the dAb; remark: listed apart in the source
[13] = target: T1, human IL-1α; experiment: cell-based or functional assay; remark: listed apart in the source
[14] = target: T2, human IL-1β; experiment: BIAcore kinetic analysis of the dAb; remark: listed apart in the source
[15] = target: T1, human IL-1α; experiment: BIAcore kinetic analysis of the dAb; remark: listed apart in the source

B1: ABT1-141 (other)
VL: DIQMTQSPSSLSASVGDRVTITCRASQWIQKQLAWYQQKPGKAPKLLIYSSSYLQSGVPSRFSGSGSGTDFTLTISSLQPEDFATYYCQQHLRVPFTFGQGTKVEIKR
notes: dAb, Vκ, to IL-1α; also called dAb ABT1-141
Q: How did the “MRC5 ND10” value [1] turn out when B1 was run?
A: Its value is 10 nM.

Q: And the “MRC5 ND50” value [1]?
A: The value was 70 nM.

Q: And the Kd [2]?
A: Its Kd is 300 nM.

Q: And the koff [2]?
A: Its koff is 0.0039 s⁻¹.

Q: And the kon [2]?
A: The kon was 13000 M⁻¹ s⁻¹.

Q: What about the “MRC5 ND50” value [3] of the same binder?
A: The value was 70 nM.

B2: ABT1-95-14 (other)
VL: DIQMTQSPSSLSASVGDRVTITCRASQPIVKNLRWYQQKPGKAPKLLIYSSSYLERGVPSRFSGSGSGTDFTLTISSLQPEDFATYHCQQGYRWPVTFGQGTKVEIKR
notes: dAb, Vκ, to IL-1α
Q: Which Kd [4] does the source give for B2 here?
A: The Kd was 1.2 nM.

Q: And the ND50 [5]?
A: Its ND50 is 250 pM.

Q: What about the “MRC5 ND50” value [6] of the same binder?
A: Its value is 250 pM.

B3: ABT1-95-15 (other)
VL: DIQMTQSPSSLSASVGDRVTITCRASQPIVRNLRWYQQKPGKAPKLLIYSSSYLEPGVPSRFSGSGSGTDFTLTISSLQPEDFATYHCQQGYRWPVTFGQGTKVEIKR
notes: dAb, Vκ, to IL-1α
Q: Which results are given for B3?
A: Kd [4]: 0.67 nM; ND50 [5]: 45 pM

B4: ABT2-46 (other)
VL: DIQMTQSPSSLSASVGDRVTITCRASQSIIEWLSWYQQKPGKAPKLLIYRTSVLQSGVPSRFSGSGSGTDFTLTISSLQPEDFATYYCQQNEFWPFTFGQGTKVEIKR
notes: dAb, Vκ, to IL-1β; also called dAb ABT2-46
Q: Which Kd [7] does the source give for B4 here?
A: The Kd was 2800 nM.

Q: What about the koff [7] of the same binder?
A: Its koff is 0.063 s⁻¹.

Q: What about the kon [7] of the same binder?
A: Its kon is 23000 M⁻¹ s⁻¹.

Q: And the “MRC5 ND10” value [8]?
A: The value was 70 nM.

Q: And the “MRC5 ND50” value [8]?
A: The value was 386 nM.

B5: ABT2-76 (other)
VL: DIQMTQSPSSLSASVGDRVTITCRASQSIDRWLAWYQQKPGKAPKLLIYRGSILQSGVPSRFSGSGSGTDFTLTISSLQPEDFATYYCQQVAFWPPTFGQGTKVEIKR
notes: dAb, Vκ, to IL-1β; also called dAb ABT2-76
Q: B5 was tested. Which “MRC5 ND10” value [8] did it give?
A: Its value is 50 nM.

Q: And the “MRC5 ND50” value [8]?
A: Its value is 456 nM.

Q: And the Kd [9]?
A: Its Kd is 1300 nM.

Q: And the koff [9]?
A: Its koff is 0.027 s⁻¹.

Q: What about the kon [9] of the same binder?
A: The kon was 20000 M⁻¹ s⁻¹.

B6: ABT2-42 (other)
VL: DIQMTQSPSSLSASVGDRVTITCRASQYIEKWLTWYQQKPGKAPTLLIYRGSLLQSGVPSRFSGSGSGTDFTLTISSLQPEDFATYYCQQTEYWPFTFGQGTKVEIKR
notes: dAb, Vκ, to IL-1β; also called dAb ABT2-42
Q: Which results are given for B6?
A: Kd [10]: 54000 nM; koff [10]: 0.13 s⁻¹; kon [10]: 2500 M⁻¹ s⁻¹; MRC5 ND10 [8]: 100 nM; MRC5 ND50 [8]: 770 nM

B7: ABT1-96 (other)
VH: EVQLLESGGGLVQPGGSLRLSCAASGFTFNQYNMFWVRQAPGKGLEWVSVISGSGRFTYYADSVKGRFTISRDNSKNTLYLQMNSLRAEDTAVYYCAKGWWRRDPPFDYWGQGTLVTVSS
notes: dAb, VH, to IL-1α; also called dAb ABT1-96
Q: With B7 as the binder, how does the Kd [11] read?
A: Its Kd is 1.1 nM.

Q: What about the koff [11] of the same binder?
A: Its koff is 0.00039 s⁻¹.

Q: And the kon [11]?
A: Its kon is 370000 M⁻¹ s⁻¹.

Q: What about the “MRC5 ND10” value [1] of the same binder?
A: Its value is 3 nM.

Q: And the “MRC5 ND50” value [1]?
A: Its value is 11 nM.

B8: ABT1-6-23 (other)
VH: EVQLLESGGGLVQPGGSLRLSCAASGFTFVRYDMAWVRQAPGKGLEWVSSIYKSGALTSYADSVKGRFTISRDNSKNTLYLQMNSLRAEDTAVYYCAKGWASFDYWGQGTLVTVSS
notes: dAb, VH, to IL-1α; also called dAb ABT1-6-23
Q: Which Kd [12] does the source give for B8 here?
A: The Kd was 61 nM.

Q: And the koff [12]?
A: The koff was 0.012 s⁻¹.

Q: And the kon [12]?
A: The kon was 200000 M⁻¹ s⁻¹.

Q: And the “MRC5 ND50” value [13]?
A: The value was 0.03 µM.

Q: And the “MRC5 ND10” value [1]?
A: The value was 3 nM.

Q: What about the “MRC5 ND50” value [1] of the same binder?
A: The value was 30 nM.

B9: ABT2-108 (other)
VH: EVQLLESGGGLVQPGGSLRLSCAASGFTFAEYTMMWVRQAPGKGLEWVSRIGQDGKNTYYADSVKGRFTISRDNSKNTLYLQMNSLRAEDTAVYYCAKYTGRVGVHHLFDYWGQGTLVTSS
notes: dAb, VH, to IL-1β
Q: Which “MRC5 ND10” value [8] does the source give for B9 here?
A: The value was 150 nM.

Q: And the “MRC5 ND50” value [8]?
A: The value was 250 nM.

Q: What about the Kd [14] of the same binder?
A: The Kd was 110 nM.

Q: And the koff [14]?
A: Its koff is 0.0031 s⁻¹.

Q: What about the kon [14] of the same binder?
A: Its kon is 29000 M⁻¹ s⁻¹.

B10: ABT1-86 (other)
VH: EVQLLESGGGLVQPGGSLRLSCAASGFTFDRYIMAWVRQAPGKGLEWVSSITPSGAATYYADSVKGRFTISRDNSKNTLYLQMNSLRAEDTAVYYCAEEPADRYSTWTFDYWGQGTLVTVSS
notes: dAb, VH, to IL-1α
Q: Which “MRC5 ND10” value [1] does the source give for B10 here?
A: The value was less than 200 nM.

Q: And the “MRC5 ND50” value [1]?
A: Its value is 900 nM.

Q: What about the Kd [15] of the same binder?
A: The Kd was 110 nM.

Q: What about the koff [15] of the same binder?
A: Its koff is 0.09 s⁻¹.

Q: What about the kon [15] of the same binder?
A: Its kon is 820000 M⁻¹ s⁻¹.
